Results published in the supplement of paper PMC9170038.

Test system: MS2 coat protein
Assay: apparent KD of MS2 coat protein; higher = weaker reporter binding
Conditions: Eterna round: R107
Method in brief: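 Illumina sequencing clusters were used for on-chip transcription of designed RNA switches. Titration with SNAP-549-labelled MS2 coat protein followed, in twofold steps from 0.7 or 1.5 nM to 3 µM in 100 mM Tris-HCl pH 7.5, 80 mM KCl, 4 mM MgCl2, without or with constant ligand. Apparent KD is each design's median of fits to normalised cluster binding curves.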

[1] = input ligand: theophylline 20 uM
[2] = input ligand: theophylline 2 mM
[3] = input ligand: tryptophan 2.4 mM

Sequence: CCUAUGCAGUCGGCCGCCACUGAACAUGAGGAUCACCCAUGUAACGGAAACGAAGAUCCUGAAAUCAGGACCGGGACUGUAUAGG [Ex Tryptophan B 3]
- apparent KD of MS2 coat protein (input ligand: arginine 13.2 mM): 92.6 nM
- apparent KD of MS2 coat protein (input ligand: none): 154 nM
- apparent KD of MS2 coat protein [1]: 221 nM
- apparent KD of MS2 coat protein [2]: 185 nM
- apparent KD of MS2 coat protein [3]: 382 nM

Sequence: AUAACUGUAAUAAACCGCAGGCUAGUGGAAGGAGCGCGGAAUAACGCAGGUAGGUCGCCACAAACAUGAGGAUCACCCAUGUGGC [SSAA NP+V+V2 #6]
- apparent KD of MS2 coat protein (input ligand: arginine 13.2 mM): 16 nM
- apparent KD of MS2 coat protein (input ligand: none): 16 nM
- apparent KD of MS2 coat protein [1]: 21.6 nM
- apparent KD of MS2 coat protein [2]: 20.7 nM
- apparent KD of MS2 coat protein [3]: 19.6 nM

Sequence: AGACUUCGCAUAGGAAAACUAUGUGAAGUCCGAGGACCGGUACGGCCGCCACUCGUCCUCAACAUGAGGAUCACCCAUGUAAUAA [#OpenEnded #CuTurnoff #Tail]
- apparent KD of MS2 coat protein (input ligand: arginine 13.2 mM): 21.1 nM
- apparent KD of MS2 coat protein [1]: 26 nM
- apparent KD of MS2 coat protein [2]: 23.5 nM

Sequence: GAGCUGAUGUAGAAAUUUUAUUUCUGAGAUACCAGUACAGAAAUGUACCCUUGGCAGCUCAGUUUUACAUGAGGAUCACCCAUGU [Ex Theophylline A 15]
- apparent KD of MS2 coat protein (input ligand: arginine 13.2 mM): 14.8 nM
- apparent KD of MS2 coat protein [1]: 15.6 nM
- apparent KD of MS2 coat protein [3]: 13.1 nM

Sequence: CUCCCUUCGGCGGCCGCCACUAACAGUUUAAUGGACUUUCGGGUCCACAUGAGGAUCACCCAUGUUAGGACCGGGCCCUUGCUCU [theeternabot_exclusion_MS2_Trp_B_39]
- apparent KD of MS2 coat protein (input ligand: arginine 13.2 mM): 8.8 nM
- apparent KD of MS2 coat protein (input ligand: none): 9.2 nM
- apparent KD of MS2 coat protein [1]: 17.5 nM
- apparent KD of MS2 coat protein [2]: 10.6 nM
- apparent KD of MS2 coat protein [3]: 10.9 nM

Sequence: AGCGGCUCGAAAGAGUCGCACUCAUGUGAAGGAGCGCGCGUAAGCGCAGGUAGGUCGCACAUGAGGAUCACCCAUGUACCUUCUA [MAT - Exclusion Arginine A - Mod of Eli - D21]
- apparent KD of MS2 coat protein (input ligand: arginine 13.2 mM): 68.5 nM
- apparent KD of MS2 coat protein (input ligand: none): 235 nM
- apparent KD of MS2 coat protein [1]: 206 nM
- apparent KD of MS2 coat protein [2]: 262 nM
- apparent KD of MS2 coat protein [3]: 118 nM

Sequence: GGAUAGGACACGGCCGCCACUAUCUAGGAUACUAGCAACAUUUGGGUACUUGAGGAUCACCCAAGUAGGACCGGGUGUCCUAUCG
- apparent KD of MS2 coat protein (input ligand: arginine 13.2 mM): 82.7 nM
- apparent KD of MS2 coat protein (input ligand: none): 170 nM
- apparent KD of MS2 coat protein [1]: 226 nM
- apparent KD of MS2 coat protein [2]: 253 nM
- apparent KD of MS2 coat protein [3]: 307 nM

Sequence: ACACACAUGAGGAUCACCCAUGUAAUAGAUACCAGUGACGCGGUGCACCCUUGGCAGCUGCUGCUGAGUGAUGGUUCCCUCGGAA [Exclusion Theophylline A GF7]
- apparent KD of MS2 coat protein (input ligand: arginine 13.2 mM): 16.8 nM
- apparent KD of MS2 coat protein [1]: 25.9 nM
- apparent KD of MS2 coat protein [3]: 19.2 nM

Sequence: ACAUGAGGAUCACCCAUGUCAUGAGGUUCACGAGGACCGGUACGGCCGCCACUCGACAUGAGGGUCACCCGUGAACGGAACACCC [kpmullin]
- apparent KD of MS2 coat protein (input ligand: arginine 13.2 mM): 14.7 nM
- apparent KD of MS2 coat protein [1]: 23.6 nM
- apparent KD of MS2 coat protein [2]: 17.7 nM

Sequence: AACAUGAGGAUCACCCAUGUCGGGCCGGAGCGAGGACCGGUACGGCCGCCACUCGAGACAUGAGGAUCACCCAUGUAGGGCGAAA [Exclusion Tryptophan A GF21]
- apparent KD of MS2 coat protein (input ligand: arginine 13.2 mM): 61.5 nM
- apparent KD of MS2 coat protein (input ligand: none): 116 nM
- apparent KD of MS2 coat protein [1]: 141 nM
- apparent KD of MS2 coat protein [2]: 189 nM
- apparent KD of MS2 coat protein [3]: 186 nM

Sequence: GCCAGACAUGAGGAUCACCCAUGUAGCGAUACCAGCUCUGUUGUGAGCCCUUGGCAGCGCACUGGCAUCGUAGGUGAUCCAAUAA [(T)''-(Ms2)-(Theo)-(T)'-(M)'_Design1]
- apparent KD of MS2 coat protein (input ligand: arginine 13.2 mM): 50.4 nM
- apparent KD of MS2 coat protein [1]: 114 nM
- apparent KD of MS2 coat protein [3]: 45.9 nM

Sequence: AGCAACAAGUCGGCCGCCACUCAAUAAACAUGAGGAUCACCCAUGUAAAUAACAUGAUAAUAAUAGAGGACCGGGACAGUUGCAU [JR_SSTryptoB_Sub015]
- apparent KD of MS2 coat protein (input ligand: arginine 13.2 mM): 13 nM
- apparent KD of MS2 coat protein [1]: 17.1 nM
- apparent KD of MS2 coat protein [2]: 15.1 nM

Sequence: CGCCGAGAGGGAAGGAGCGCGAUAACAUAACAUGAGGAUCACCCAUGUAAGAAAUUAAUCAUGCAGGUAGGUCGCCCAAGCGGCG [Same State Arginine B GF 3]
- apparent KD of MS2 coat protein (input ligand: arginine 13.2 mM): 15 nM
- apparent KD of MS2 coat protein (input ligand: none): 15.1 nM
- apparent KD of MS2 coat protein [1]: 23.8 nM
- apparent KD of MS2 coat protein [2]: 19.4 nM
- apparent KD of MS2 coat protein [3]: 14.9 nM

Sequence: UGAUCCUGCAGGGAUACCAGCGCCGCUAGAUAACUAUGCACAUGAGGAUCACCCAUGUAACGCCCUUGGCAGCCCAACUAAAGGG [Same State Theophylline B GF21]
- apparent KD of MS2 coat protein (input ligand: arginine 13.2 mM): 28.9 nM
- apparent KD of MS2 coat protein (input ligand: none): 39.9 nM
- apparent KD of MS2 coat protein [1]: 41 nM
- apparent KD of MS2 coat protein [2]: 26.7 nM
- apparent KD of MS2 coat protein [3]: 35.2 nM

Sequence: GAAGGAGAACUCAUGACUCCUUCCCUGGAAGGAGCGAGCGAAAGCUCAGGUAGGUCGCCAGAAACAUGAGGAUCACCCAUGUAAU [(A)''-(M)'-(A)'-(Arg1)-(Arg2)-(M1)-(M2)_Design4]
- apparent KD of MS2 coat protein (input ligand: arginine 13.2 mM): 28.5 nM
- apparent KD of MS2 coat protein (input ligand: none): 37.4 nM
- apparent KD of MS2 coat protein [1]: 48 nM
- apparent KD of MS2 coat protein [2]: 43.3 nM
- apparent KD of MS2 coat protein [3]: 40.1 nM

Sequence: ACAUGAGGAUCACCCAUGUAACGGCAUAAUCGAGGACCGGUACGGCCGCCACUCGGAAUCAGUGACAGGCAUAUUUAUUAUAAGA [Eclusion - Tryptophan A / A]
- apparent KD of MS2 coat protein (input ligand: arginine 13.2 mM): 12 nM
- apparent KD of MS2 coat protein [1]: 15.6 nM
- apparent KD of MS2 coat protein [2]: 11.5 nM

Sequence: UCGGGCAGAGCGGCCGCCACUGUUUGGCGUGCGGAUGACGGAACAUGAGGAUCACCCAUGUUGUUUAGGACCGGGCUUGCGGCGU [ipimullin]
- apparent KD of MS2 coat protein (input ligand: arginine 13.2 mM): 12.1 nM
- apparent KD of MS2 coat protein (input ligand: none): 12.7 nM
- apparent KD of MS2 coat protein [1]: 16.7 nM
- apparent KD of MS2 coat protein [2]: 14 nM
- apparent KD of MS2 coat protein [3]: 12.1 nM

Sequence: AGAUGCCACUGUGGAUAGCACGAUGCCGAUACCAGCUAGGAAACUAGCCCUUGGCAGCGGUACAUGAGGAUCACCCAUGUAUCCU [EThA NP+V+V2 #9]
- apparent KD of MS2 coat protein (input ligand: arginine 13.2 mM): 12.2 nM
- apparent KD of MS2 coat protein [1]: 18.3 nM
- apparent KD of MS2 coat protein [3]: 12.9 nM

Sequence: UCUACAUGAGGAUCACCCAUGUGCCAUGAUACCAGACAUGAAAAUGUCCCUUGGCAGCGUGGGUAGCGCAUCCGAAAGGAUGCGC [#08 SameState-TheophyllineA]
- apparent KD of MS2 coat protein (input ligand: arginine 13.2 mM): 1370 nM
- apparent KD of MS2 coat protein (input ligand: none): 702 nM
- apparent KD of MS2 coat protein [1]: 240 nM
- apparent KD of MS2 coat protein [2]: 1310 nM
- apparent KD of MS2 coat protein [3]: 20.5 nM

Sequence: UGUGUUGUCCGAAGGAGCGGGACCUAAUAGUGGUAACAUGAGGAUCACCCAUGUAUUUCGUCCCAGGUAGGUCGCGGACAGUGUA [ArgiB-ms2@36]
- apparent KD of MS2 coat protein (input ligand: arginine 13.2 mM): 19 nM
- apparent KD of MS2 coat protein (input ligand: none): 20.7 nM
- apparent KD of MS2 coat protein [1]: 32.2 nM
- apparent KD of MS2 coat protein [2]: 25.1 nM
- apparent KD of MS2 coat protein [3]: 21.7 nM

Sequence: GCGAUGGAGCGAAGGAGCGUGCUGGUACAUGAGGAUCACCCAUGUGAGUCGCAGCGCUAAGCACAGGUAGGUCGCGCUCCAUCGC [EAB NP+V+V2 #11]
- apparent KD of MS2 coat protein (input ligand: arginine 13.2 mM): 49.1 nM
- apparent KD of MS2 coat protein (input ligand: none): 28 nM
- apparent KD of MS2 coat protein [1]: 35.3 nM
- apparent KD of MS2 coat protein [2]: 34.5 nM
- apparent KD of MS2 coat protein [3]: 34.2 nM

Sequence: GGGUGGUAGGCGGCCGCCACUGAUUUUCAUUUAUAGAUGACAUGAGGAUCACCCAUGUUUAUGUGCAGGACCGGGCCUGUUGUGG [aaaS]
- apparent KD of MS2 coat protein (input ligand: arginine 13.2 mM): 43.1 nM
- apparent KD of MS2 coat protein (input ligand: none): 98.7 nM
- apparent KD of MS2 coat protein [1]: 74.2 nM
- apparent KD of MS2 coat protein [2]: 113 nM
- apparent KD of MS2 coat protein [3]: 77.6 nM

Sequence: CCUCAUGUGUAUCACCACAUGAGUGGUGAUACCAGCAUCGAAAGAUGCCCUUGGCAGCACCAACAUGAGGAUCACCCAUGUAAUA [(M)'-(T)'-(M)''-(T1)-(T2)-(M1)-(M2)_Design2]
- apparent KD of MS2 coat protein (input ligand: arginine 13.2 mM): 60.3 nM
- apparent KD of MS2 coat protein [1]: 284 nM
- apparent KD of MS2 coat protein [3]: 287 nM

Sequence: UUGUUGUUUGGAAGGAGCGUGUAAGAUUAAGAACAUGAGGAUCACCCAUGUUUUAAGGGAGCACAGGUAGGUCGCCGGGUGGUGG [11.S]
- apparent KD of MS2 coat protein (input ligand: arginine 13.2 mM): 14.4 nM
- apparent KD of MS2 coat protein (input ligand: none): 12.3 nM
- apparent KD of MS2 coat protein [1]: 31.5 nM
- apparent KD of MS2 coat protein [2]: 15.9 nM
- apparent KD of MS2 coat protein [3]: 21.5 nM

Sequence: AAGACAUGAGGAUCACCCAUGUCGACAAAACGAGGACCGGUACGGCCGCCACUCGAAAGCAAAUGAGCGCAUGCGGCCUGGGUAU [Exclusion Tryp A GF2]
- apparent KD of MS2 coat protein (input ligand: arginine 13.2 mM): 10.1 nM
- apparent KD of MS2 coat protein (input ligand: none): 11.9 nM
- apparent KD of MS2 coat protein [1]: 14.1 nM
- apparent KD of MS2 coat protein [2]: 12 nM
- apparent KD of MS2 coat protein [3]: 12.7 nM

Sequence: GAUAUAUAGGCGGCCGCCACUGAUUUUCAUAUAUAUAUAACAUGAGGAUCACCCAUGUAGAUAUACAGGACCGGGCCUAUAUAUU [aaaB]
- apparent KD of MS2 coat protein (input ligand: arginine 13.2 mM): 15.5 nM
- apparent KD of MS2 coat protein [1]: 16 nM
- apparent KD of MS2 coat protein [2]: 16 nM

Sequence: GCUACAUGAGGAUCACCCAUGUGUACUGAAGGAGCGGCGGAAACGCCAGGUAGGUCGCAGUAUGUGGCUCUGGGCACGAGAAAGC [SSAA NP+V+V2 #2]
- apparent KD of MS2 coat protein (input ligand: arginine 13.2 mM): 36.6 nM
- apparent KD of MS2 coat protein (input ligand: none): 25.3 nM
- apparent KD of MS2 coat protein [1]: 28.3 nM
- apparent KD of MS2 coat protein [2]: 72.9 nM
- apparent KD of MS2 coat protein [3]: 34.3 nM

Sequence: GGUGUUACGUCGGCCGCCACUAUACUACAUGAGGAUCACCCAUGUCAUCCCUUCAAUUGGUAGCCUAGGACCGGGACAGAAUUCG [theeternabot_exclusion_MS2_Trp_B_8]
- apparent KD of MS2 coat protein (input ligand: arginine 13.2 mM): 33.2 nM
- apparent KD of MS2 coat protein [1]: 55.2 nM
- apparent KD of MS2 coat protein [2]: 43.8 nM
